Laboratory results as given in patent US9518268B2, “Drought tolerant transgenic plants and method of making same” (PURDUE RESEARCH FOUNDATION, priority 2013, dated 2016).
“Also recorded” adds a separate entry of the source.

B1: PYL13: Arabidopsis thaliana PYR/PYL/RCAR family protein PYL13, SEQ ID NO: 1 (protein, listed as Arabidopsis thaliana)
chain: MESSKQKRCRSSVVETIEAPLPLVWSILRSFDKPQAYQRFVKSCTMRSGGGGGKGGEGKGSVRDVTLVSGFPADFSTERLEELDDESHVMVVSIIGGNHRLVNYKSKTKVVASPEDMAKKTVVVESYVVDVPEGTSEEDTIFFVDNIIRYNLTSLAKLTKKMMK

Tested on: RD29B-LUC expression
Assay: Reconstituted ABA signaling pathway, transient expression in wild-type (Col-0) protoplasts
Format: cell-based, Arabidopsis
Settings: for ABA-dependent induction of RD29B-LUC expression: co-transfected with ABI1, SnRK2.6 and ABF2, without or with 5 μM ABA, 4.5 h; for RD29B-LUC expression: SnRK2.6 and ABF2; for level of inhibition by PYL13 of the other PYL's activity: 2×PYL13 plasmid, ABI1, SnRK2.6, ABF2 co-expressed
Procedure: To test whether PYL13 can act as an ABA receptor, the ABA signaling pathway in wild-type protoplasts was reconstituted. Turning now to FIG. 1, wild-type (Col-0) protoplasts were used in both panels A and B. After transfection, the protoplasts were incubated for 4.5 hours under light in the absence of ABA (open bars) or in the presence of 5 μM ABA (closed bars). Error bars indicate s.e.m. (n=3). […] ZmUBQ-GUS was used as the internal control. […] Instead, the ABA signaling pathway was reconstituted by co-expression of PYLs, ABI1, SnRK2.6, and ABF2. […] Therefore, the response of other members of the PYL family would not predict the response of PYL13 expression or over-expression in plants.
PYL13 interacts with all clade A PP2Cs tested but binds most strongly to PP2CA. To investigate whether PYL13 inhibits PP2Cs in planta, PYL13 was co-expressed with all clade A PP2Cs in wild-type protoplasts, as shown in FIG. 4. Transfections of all PP2Cs together with SnRK2.6 and ABF2 inhibited RD29B-LUC expression to different degrees, see FIG. 4A, and the degree of inhibition was correlated with the intensity of interaction between PP2Cs and SnRK2.6 (Fujii et al., 2009). […] The ABA signaling pathway was reconstituted by co-expression of PYLs, PP2Cs, SnRK2.6, and ABF2. RD29B-LUC was used as the ABA-responsive reporter. ZmUBQ-GUS was used as the internal control. After transfection, protoplasts were incubated for 4.5 h under light in the absence of ABA (open bars) or in the presence of 5 μM ABA (closed bars). Error bars indicate s.e.m. (n=9).
To investigate the physiological significance of the binding between PYL13 and PYLs in vivo, PYL13 was co-expressed with one of the other PYLs, ABI1, SnRK2.6, and ABF2 in wild-type protoplasts. When the transfected PYL13 plasmid was 2-fold of that of the other PYLs, co-transfections with PYL13 decreased the activity of the ABA-responsive PYLs (FIG. 5E). […] ZmUBQ-GUS was used as the internal control. After transfection, protoplasts were incubated for 4.5 h under light in the absence of ABA (open bars) or in the presence of 5 μM ABA (closed bars). Error bars indicate s.e.m. (n=3).
The ABA signaling pathway was reconstituted by co-expression of PYL13, PYLs, ABI1, SnRK2.6, and ABF2. […] Error bars indicate s.e.m. (n=3). […] Without wishing to be bound by theory, PYL13 inhibition of other PYLs might result from direct interactions between PYL13 and other PYLs or from competition for the binding sites on PP2Cs.
Assays for transient expression in protoplasts were performed as described (Fujii et al., 2009). Leaf strips (0.5 mm) were cut from the middle part of second leaves using a razor blade (VWR SCIENTIFIC) and submerged in 15 mL of enzyme solution containing 20 mM MES, pH 5.7, 1.5% (w/v) cellulase R10 (YAKULT PHARMACEUTICAL INDUSTRY), 0.4% (w/v) macerozyme R10 (YAKULT PHARMACEUTICAL INDUSTRY), 0.4 M mannitol, 20 mM KCl, 10 mM CaCl2, 1 mM 2-mercaptoethanol, and 0.1% BSA. The leaves were vacuum infiltrated for 30 min and then incubated without shaking for 3 h in the dark at room temperature. The enzyme/protoplast solution was diluted with 15 mL of W5 solution (2 mM MES, pH 5.7, 154 mM NaCl, 125 mM CaCl2, and 5 mM KCl) and filtered with a 75-μm nylon mesh. Protoplasts were centrifuged at 100 g for 2 min in a 30-mL round-bottomed tube (SARSTEDT), resuspended in W5 solution, and rested for 30 min at room temperature.
Before transfection, protoplasts were changed into MMg solution (4 mM MES, pH 5.7, 0.4 M mannitol, and 15 mM MgCl2) to a final concentration of 2×10^5 cells per microliter. Protoplasts (100 μl) were gently and thoroughly mixed with the plasmid DNA mixture (less than 10 μl) and 110 μl of PEG solution (40% w/v PEG-4000, 0.2 M mannitol, and 100 mM CaCl2), incubated for 5 min, washed with 440 μl of W5 solution, and resuspended in 50 μl of WI solution (4 mM MES, pH 5.7, 0.5 M mannitol, and 20 mM KCl). After transfection, protoplasts were incubated in WI solution without ABA or with 5 μM ABA under light. […]

| Molecule | ABA-dependent induction of RD29B-LUC expression | RD29B-LUC expression (co-transfection with ABI1, ABI2, HAB1, HAB2, or AHG1) | RD29B-LUC expression (co-transfection with PP2CA, HAI2, or HAI3) | level of inhibition by PYL13 of the other PYL's activity (with PYL1) [%] | level of inhibition by PYL13 of the other PYL's activity (with PYL2) [%] |
| --- | --- | --- | --- | --- | --- |
| PYL2: Arabidopsis thaliana PYL family ABA receptor protein PYL2, AT2G26040 | enabled the expression; also recorded: restored RD29B-LUC expression |  |  |  |  |
| B1 | did not enable the expression | did not enable RD29B-LUC expression | enabled the ABA-dependent induction | 67 | 27 |
